Biological target: T1, JIP4[1-103] (human, UniProt O60271-1 1-103)
T1 chain: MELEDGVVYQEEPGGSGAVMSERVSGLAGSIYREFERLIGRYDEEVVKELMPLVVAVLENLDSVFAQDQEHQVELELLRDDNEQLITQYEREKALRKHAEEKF
Assay: ITC

Kd: 4.5 µM
B1: DLIC1[388-523] (domain or fragment)
chain: PTAAGRPVDASPRVPGGSPRTPNRSVSSNVASVSPIPAGSKKIDPNMKAGATSEGVLANFFNSLLSKKTGSPGGPGVSGGSPAGGAGGGSSGLPPSTKKSGQKPVLDVHAELDRITRKPVTVSPTTPTSPTEGEAS

From publication doi:10.1101/2021.10.11.463801 (2021)
